Ends that are not written are not given here.
Molecular target: T1, GST-KIXY650A (Y650A variant of CBP KIX) (UniProt P45481 586-665, limits assumed)
T1 construct: domain: KIX; not shown: GST tag
Test: fluorescence polarization, 25 nM fluorescein-labelled peptide, GST-KIXY650A titrated

T1 sequence (P45481 586-665 Y650A limits assumed): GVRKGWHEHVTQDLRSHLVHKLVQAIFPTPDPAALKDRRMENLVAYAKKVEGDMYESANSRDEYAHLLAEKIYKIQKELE

For GISWPTFEGDDAPVRRLSFFYILLDLYLDAPGVC(acetamidofluorescein)-NH2 (designed binder, also called PPKID6 (unphosphorylated)) [PPKID6^U], the “EC50 (read off the curve)” value was about 700 nM.

From US20050287542A1 (YALE UNIVERSITY, published 2005)
